# Laboratory results from publication PMC5543139.
# Target: glucagon receptor on CHO-GCGR cells (human) (UniProt P47871)
# Test: flow cytometry on live cells
# Details: D-PBS pH 7.4, 5 mM MgCl2, 4.5 g/L glucose, 0.1 mg/mL yeast tRNA, 1 mg/L BSA; 4 C, 1 h (45 min in Results for Kd)
# glucagon receptor on CHO-GCGR cells (human), sequence (P47871 26-477): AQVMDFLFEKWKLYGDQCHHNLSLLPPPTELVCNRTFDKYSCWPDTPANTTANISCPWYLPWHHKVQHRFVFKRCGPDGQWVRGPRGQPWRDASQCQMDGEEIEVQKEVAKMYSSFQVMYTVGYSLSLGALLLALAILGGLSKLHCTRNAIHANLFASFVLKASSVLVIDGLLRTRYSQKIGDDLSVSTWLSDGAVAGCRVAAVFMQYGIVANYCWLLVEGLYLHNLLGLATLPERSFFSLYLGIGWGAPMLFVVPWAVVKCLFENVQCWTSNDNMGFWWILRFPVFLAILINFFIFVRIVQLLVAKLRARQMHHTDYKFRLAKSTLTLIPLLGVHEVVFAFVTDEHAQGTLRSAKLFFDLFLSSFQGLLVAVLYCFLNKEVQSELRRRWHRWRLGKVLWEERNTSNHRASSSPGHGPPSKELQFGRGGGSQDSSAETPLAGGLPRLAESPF
sequence,measurement,value
ATCCAGAGTGACGCAGCAGATAAGTAGGTATCCGTTTGAAAAACTTTTCTGACCGTCCGACTATGGACACGGTGGCTTAGT [GR-3],Kd,52.7 nM
